# From article PMC9482650, “Quantitative fragmentomics allow affinity mapping of interactomes” (Nature Communications, 2022)
# T1: DLG3_1, Q92796
# T1 sequence (Q92796 125-227, limits assumed, looked up): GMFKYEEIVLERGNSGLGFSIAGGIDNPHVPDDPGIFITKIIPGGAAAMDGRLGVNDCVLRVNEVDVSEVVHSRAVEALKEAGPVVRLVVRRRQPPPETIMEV
# T2: MPP6, Q9NZW5
# T2 sequence (Q9NZW5 125-219, limits assumed, looked up): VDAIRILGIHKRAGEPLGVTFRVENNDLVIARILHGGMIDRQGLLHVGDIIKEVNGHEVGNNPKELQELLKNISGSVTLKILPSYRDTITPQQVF
# T3: NHERF3_4, Q5T2W1
# T3 sequence (Q5T2W1 373-468, limits assumed, looked up): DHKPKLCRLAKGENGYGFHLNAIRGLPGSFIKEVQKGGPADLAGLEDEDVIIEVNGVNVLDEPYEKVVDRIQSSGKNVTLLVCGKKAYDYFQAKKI
# T4: PDZD2_2, O15018
# T4 sequence (O15018 329-429, limits assumed, looked up): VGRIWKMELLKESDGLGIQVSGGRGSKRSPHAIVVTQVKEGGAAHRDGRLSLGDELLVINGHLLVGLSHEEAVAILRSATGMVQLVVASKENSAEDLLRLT
# T5: SNTA1, Q13424
# T5 sequence (Q13424 82-180, limits assumed, looked up): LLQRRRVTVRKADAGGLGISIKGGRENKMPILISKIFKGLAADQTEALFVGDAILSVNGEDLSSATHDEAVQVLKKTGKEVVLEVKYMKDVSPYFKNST
# T6: NHERF3_1, Q5T2W1
# T6 sequence (Q5T2W1 4-100, limits assumed, looked up): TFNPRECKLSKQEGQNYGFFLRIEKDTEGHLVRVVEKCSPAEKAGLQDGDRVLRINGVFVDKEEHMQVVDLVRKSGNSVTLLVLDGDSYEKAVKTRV
# T7: LIN7A, O14910
# T7 sequence (O14910 103-200, limits assumed, looked up): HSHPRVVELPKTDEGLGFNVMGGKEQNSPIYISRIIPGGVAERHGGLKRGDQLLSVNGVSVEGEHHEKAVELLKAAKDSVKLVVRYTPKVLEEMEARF
# T8: MPDZ_5, O75970
# T8 sequence (O75970 695-796, limits assumed, looked up): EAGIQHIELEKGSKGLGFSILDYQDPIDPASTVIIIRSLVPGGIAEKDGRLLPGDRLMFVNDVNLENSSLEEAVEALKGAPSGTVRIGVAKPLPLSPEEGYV
# T9: PCLO, Q9Y6V0
# T9 sequence (Q9Y6V0 4491-4600, limits assumed, looked up): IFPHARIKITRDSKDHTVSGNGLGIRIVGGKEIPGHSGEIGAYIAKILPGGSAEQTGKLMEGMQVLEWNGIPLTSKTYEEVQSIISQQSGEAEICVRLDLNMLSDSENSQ
# T10: DFNB31_3, Q9P202
# T10 sequence (Q9P202 811-907, limits assumed, looked up): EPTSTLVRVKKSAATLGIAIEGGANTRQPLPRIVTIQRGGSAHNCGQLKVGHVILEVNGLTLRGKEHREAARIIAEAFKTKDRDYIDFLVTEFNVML
# T11: SIPA1L2, Q9P2F8
# T11 sequence (Q9P2F8 945-1036, limits assumed, looked up): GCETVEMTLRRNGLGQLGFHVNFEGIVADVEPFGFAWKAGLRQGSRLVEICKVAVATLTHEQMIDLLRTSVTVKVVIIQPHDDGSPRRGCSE
# Columns and labels:
# Assay in all cases: holdup assay
# Design in all cases: key: below the threshold = too weak to quantify, mostly under pKd 3.1 to 4
# Conditions in all cases: plain residues with an end cap or a label only (N-terminal biotin on a linker: ado-ado)
# MAGI2_2, Q86UL8 = target: MAGI2_2, Q86UL8
# DLG3_1, Q92796 = target: T1, DLG3_1, Q92796
# CASK, O14936 = target: CASK, O14936
# MPP6, Q9NZW5 = target: T2, MPP6, Q9NZW5
# GRID2IP_2, A4D2P6 = target: GRID2IP_2, A4D2P6
# NHERF2_2, Q15599 = target: NHERF2_2, Q15599
# NHERF3_4, Q5T2W1 = target: T3, NHERF3_4, Q5T2W1
# MAST1, Q9Y2H9 = target: MAST1, Q9Y2H9
# PDZD2_2, O15018 = target: T4, PDZD2_2, O15018
# DLG1_2, Q12959 = target: DLG1_2, Q12959
# GRASP, Q7Z6J2 = target: GRASP, Q7Z6J2
# SNTA1, Q13424 = target: T5, SNTA1, Q13424
# FRMPD3, Q5JV73 = target: FRMPD3, Q5JV73
# HTRA2, O43464 = target: HTRA2, O43464
# NHERF3_1, Q5T2W1 = target: T6, NHERF3_1, Q5T2W1
# FRMPD2_3, Q68DX3 = target: FRMPD2_3, Q68DX3
# DLG1_3, Q12959 = target: DLG1_3, Q12959
# GRIP2_6, Q9C0E4 = target: GRIP2_6, Q9C0E4
# LIN7A, O14910 = target: T7, LIN7A, O14910
# IL16_3, Q14005 = target: IL16_3, Q14005
# DLG1_1, Q12959 = target: DLG1_1, Q12959
# MPDZ_5, O75970 = target: T8, MPDZ_5, O75970
# PCLO, Q9Y6V0 = target: T9, PCLO, Q9Y6V0
# GOPC, Q9HD26 = target: GOPC, Q9HD26
# GRIP2_5, Q9C0E4 = target: GRIP2_5, Q9C0E4
# DFNB31_3, Q9P202 = target: T10, DFNB31_3, Q9P202
# SIPA1L2, Q9P2F8 = target: T11, SIPA1L2, Q9P2F8
# Chain of IL16_3, Q14005 (Q14005 1107-1207): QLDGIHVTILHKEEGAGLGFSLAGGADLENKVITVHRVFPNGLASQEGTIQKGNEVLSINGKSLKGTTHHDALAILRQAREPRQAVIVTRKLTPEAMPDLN
# Chain of GRASP, Q7Z6J2 (Q7Z6J2 96-193): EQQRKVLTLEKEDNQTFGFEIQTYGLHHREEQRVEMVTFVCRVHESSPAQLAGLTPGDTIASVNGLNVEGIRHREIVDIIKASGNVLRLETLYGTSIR
# Chain of CASK, O14936 (O14936 487-570): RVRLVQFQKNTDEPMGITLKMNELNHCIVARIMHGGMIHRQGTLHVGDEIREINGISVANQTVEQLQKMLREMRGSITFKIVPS
# Chain of NHERF2_2, Q15599 (Q15599 142-238): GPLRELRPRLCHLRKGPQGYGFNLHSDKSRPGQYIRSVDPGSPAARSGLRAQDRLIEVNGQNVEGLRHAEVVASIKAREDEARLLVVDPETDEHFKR
# Chain of FRMPD3, Q5JV73 (Q5JV73 12-100): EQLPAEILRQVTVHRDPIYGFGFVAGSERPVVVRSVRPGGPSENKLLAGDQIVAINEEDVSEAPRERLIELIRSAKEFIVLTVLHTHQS
# Chain of MAST1, Q9Y2H9 (Q9Y2H9 962-1065): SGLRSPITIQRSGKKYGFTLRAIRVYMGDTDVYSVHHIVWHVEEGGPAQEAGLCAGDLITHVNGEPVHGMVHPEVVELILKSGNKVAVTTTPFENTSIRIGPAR
# Chain of MAGI2_2, Q86UL8 (Q86UL8 410-522): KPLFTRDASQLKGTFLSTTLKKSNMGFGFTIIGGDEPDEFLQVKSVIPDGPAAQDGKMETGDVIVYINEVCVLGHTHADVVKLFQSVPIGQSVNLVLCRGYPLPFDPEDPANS
# Chain of FRMPD2_3, Q68DX3 (Q68DX3 1073-1166): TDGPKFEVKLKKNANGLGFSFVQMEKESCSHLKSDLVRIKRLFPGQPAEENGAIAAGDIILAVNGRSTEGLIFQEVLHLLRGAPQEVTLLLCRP
# Chain of GRIP2_6, Q9C0E4 (Q9C0E4 648-740): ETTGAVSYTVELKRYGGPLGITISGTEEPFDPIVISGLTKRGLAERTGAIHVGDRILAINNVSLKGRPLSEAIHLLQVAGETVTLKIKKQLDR
# Chain of GRIP2_5, Q9C0E4 (Q9C0E4 544-642): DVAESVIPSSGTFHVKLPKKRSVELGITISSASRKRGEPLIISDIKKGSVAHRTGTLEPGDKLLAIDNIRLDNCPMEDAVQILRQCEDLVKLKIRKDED
# Chain of GRID2IP_2, A4D2P6 (A4D2P6 272-370): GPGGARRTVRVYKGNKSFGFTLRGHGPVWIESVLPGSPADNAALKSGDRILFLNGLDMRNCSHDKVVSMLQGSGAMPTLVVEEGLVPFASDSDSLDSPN
# Chain of HTRA2, O43464 (O43464 355-458): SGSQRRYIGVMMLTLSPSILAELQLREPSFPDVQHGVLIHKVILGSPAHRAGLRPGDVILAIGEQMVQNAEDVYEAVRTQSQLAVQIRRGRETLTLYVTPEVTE
"pKd (MAGI2_2, Q86UL8)","pKd (DLG3_1, Q92796)","pKd (CASK, O14936)","pKd (MPP6, Q9NZW5)","pKd (GRID2IP_2, A4D2P6)","pKd (NHERF2_2, Q15599)","pKd (NHERF3_4, Q5T2W1)","pKd (MAST1, Q9Y2H9)","pKd (PDZD2_2, O15018)","pKd (DLG1_2, Q12959)","pKd (GRASP, Q7Z6J2)","pKd (SNTA1, Q13424)","pKd (FRMPD3, Q5JV73)","pKd (HTRA2, O43464)","pKd (NHERF3_1, Q5T2W1)","pKd (FRMPD2_3, Q68DX3)","pKd (DLG1_3, Q12959)","pKd (GRIP2_6, Q9C0E4)","pKd (LIN7A, O14910)","pKd (IL16_3, Q14005)",further results,Binder
below the threshold,below the threshold,below the threshold,3.77,below the threshold,below the threshold,below the threshold,3.64,below the threshold,below the threshold,below the threshold,below the threshold,4.02,below the threshold,below the threshold,below the threshold,below the threshold,below the threshold,below the threshold,below the threshold,"pKd (DLG1_1, Q12959): below the threshold; pKd (MPDZ_5, O75970): below the threshold; pKd (PCLO, Q9Y6V0): below the threshold; pKd (GOPC, Q9HD26): below the threshold; pKd (GRIP2_5, Q9C0E4): below the threshold; pKd (DFNB31_3, Q9P202): 3.49; pKd (SIPA1L2, Q9P2F8): below the threshold","KPDKQEEFYA [SDC3, O75056]"
3.54,below the threshold,below the threshold,below the threshold,below the threshold,4.51,3.79,4.19,3.71,below the threshold,4.16,below the threshold,below the threshold,below the threshold,4.06,3.53,3.73,below the threshold,below the threshold,below the threshold,"pKd (DLG1_1, Q12959): below the threshold; pKd (MPDZ_5, O75970): below the threshold; pKd (PCLO, Q9Y6V0): below the threshold; pKd (GOPC, Q9HD26): 3.83; pKd (GRIP2_5, Q9C0E4): below the threshold; pKd (DFNB31_3, Q9P202): 3.53; pKd (SIPA1L2, Q9P2F8): below the threshold","DSEEELPTRL [GRK6, P43250]"
below the threshold,below the threshold,below the threshold,below the threshold,4.12,4.52,3.64,4.67,3.83,below the threshold,4.33,below the threshold,below the threshold,below the threshold,5.02,below the threshold,below the threshold,below the threshold,below the threshold,below the threshold,"pKd (DLG1_1, Q12959): below the threshold; pKd (MPDZ_5, O75970): below the threshold; pKd (PCLO, Q9Y6V0): below the threshold; pKd (GOPC, Q9HD26): 3.55; pKd (GRIP2_5, Q9C0E4): below the threshold; pKd (DFNB31_3, Q9P202): below the threshold; pKd (SIPA1L2, Q9P2F8): below the threshold","RDYTQSSSSL [GRM5, P41594]"
